US7297515 (MYRIAD GENETICS, dated 2007)
Each block holds one binder with its values, some of them ahead of it.

Assays:
[1] = molecular target: T1, zinc finger protein 202, alt. transcript beta (ZNF202b), bait fragment amino acids 1-199 (human, UniProt P04386 1-147; O95125 1-199); test: yeast two-hybrid; prey fragment isolated with ZNF202b bait 1-199
T1 construct: also called ZNF202beta; ZNF202 m1
Text: (§1) In these yeast cells, the bait was produced as a C-terminal fusion protein with the DNA binding domain of the transcription factor Gal4 (amino acids 1 to 147). Prey libraries were transformed into the yeast strain BK100 (genotype of this strain: MATa trp1-901 leu2-3,112 ura3-52 his3-200 gal4Δ gal80 LYS2::GAL-HIS3 GAL2-ADE2 met2::GAL7-lacZ), and selected for the ability to drive leucine synthesis. In these yeast cells, each cDNA was expressed as a fusion protein with the transcription activation domain of the transcription factor Gal4 (amino acids 768 to 881) and a 9 amino acid hemagglutinin epitope tag. PNY200 cells (MATα mating type), expressing the bait, were then mated with BK100 cells (MATa mating type), expressing prey proteins from a prey library. The resulting diploid yeast cells expressing proteins interacting with the bait protein were selected for the ability to synthesize tryptophan, leucine, histidine, and adenine. DNA was prepared from each clone, transformed by electroporation into *E. coli* strain KC8 (Clontech KC8 electrocompetent cells, Catalog No. C2023-1), and the cells were selected on ampicillin-containing plates in the absence of either tryptophane (selection for the bait plasmid) or leucine (selection for the library plasmid). DNA for both plasmids was prepared and sequenced by the dideoxynucleotide chain termination method. […]

[2] = molecular target: T2, zinc finger protein 202, alt. transcript beta (ZNF202b), bait fragment amino acids 1-224 (human, UniProt P04386 1-147; O95125 1-224); test: yeast two-hybrid; prey fragment isolated with ZNF202b bait 1-224
T2 construct: also called ZNF202beta; ZNF202 m1
Text: as §1

[3] = molecular target: T3, novel protein PN1851, fragment residues 14-369 (human, UniProt P04386 768-881 (Saccharomyces cerevisiae entry)); test: yeast two-hybrid search, bait ZNF202 33-118
T3 construct: range 768-881
Text: The new construct was selected directly in the yeast strain PNY200 for its ability to drive tryptophane synthesis (genotype of this strain: MATα trp1-901 leu2-3, 112 ura3-52 his3-200 ade2 gal4Δ gal80). In these yeast cells, the bait was produced as a C-terminal fusion protein with the DNA binding domain of the transcription factor Gal4 (amino acids 1 to 147). Prey libraries were transformed into the yeast strain BK100 (genotype of this strain: MATa trp1-901 leu2-3,112 ura3-52 his3-200 gal4Δ gal80 LYS2::GAL-HIS3 GAL2-ADE2 met2::GAL7-lacZ), and selected for the ability to drive leucine synthesis. In these yeast cells, each cDNA was expressed as a fusion protein with the transcription activation domain of the transcription factor Gal4 (amino acids 768 to 881) and a 9 amino acid hemagglutinin epitope tag. PNY200 cells (MATα mating type), expressing the bait, were then mated with BK100 cells (MATa mating type), expressing prey proteins from a prey library. The resulting diploid yeast cells expressing proteins interacting with the bait protein were selected for the ability to synthesize tryptophan, leucine, histidine, and adenine. […]

B1: novel protein PN7745, prey fragment amino acids 44-171 (other, not shown: small tags and cut ends)
chain: ANFNQSGNIADSSLSFTFTNSSNGPNLITTQTNSQALSQPIASSNVHDNFMNNEITASKIDDGNNSKPLSPGWTDQTAYNAFGITTGMFNTTTMDDVYNYLFDDEDTPPNPKKENAADAESFRQRFRWFCYSEVAGPRKALSQLWELCNQWLRPDIHTKEQILELLVFEQFLTILPGEIRIWVKSQHPESSEEVVTLIEDLTQILEEKDPVSEDSTVSQEENSKEDKMVTVCPNTESCESAL
notes: range 768-881; Yeast two-hybrid prey
binding result [1]: binds

B2: novel protein PN7745, prey fragment amino acids 2-156 (other, not shown: small tags and cut ends)
chain: ANFNQSGNIADSSLSFTFTNSSNGPNLITTQTNSQALSQPIASSNVHDNFMNNEITASKIDDGNNSKPLSPGWTDQTAYNAFGITTGMFNTTTMDDVYNYLFDDEDTPPNPKKEQAVVPLNKMTAISPEPQTLASTEQNEVPRVVTSGEQEAILRGNAADAESFRQRFRWFCYSEVAGPRKALSQLWELCNQWLRPDIHTKEQILELLVFEQFLTILPGEIRIWVKSQHPESSEEVVTLIEDLTQILEEKDPVSEDSTVSQEENSKEDK
notes: as for B1
binding result [2]: binds

B3: novel protein PN7745, prey fragment amino acids 2-171 (other, not shown: small tags and cut ends)
chain: ANFNQSGNIADSSLSFTFTNSSNGPNLITTQTNSQALSQPIASSNVHDNFMNNEITASKIDDGNNSKPLSPGWTDQTAYNAFGITTGMFNTTTMDDVYNYLFDDEDTPPNPKKEQAVVPLNKMTAISPEPQTLASTEQNEVPRVVTSGEQEAILRGNAADAESFRQRFRWFCYSEVAGPRKALSQLWELCNQWLRPDIHTKEQILELLVFEQFLTILPGEIRIWVKSQHPESSEEVVTLIEDLTQILEEKDPVSEDSTVSQEENSKEDKMVTVCPNTESCESAL
notes: as for B1
binding result [2]: binds
binding result [1]: binds

binding result [3]: binds
B4: zinc finger protein 202, alt. transcript beta (ZNF202b), bait fragment amino acids 33-118 (other, UniProt P04386 1-147, looked up)
chain: MKLLSSIEQACDICRLKKLKCSKEKPKCAKCLKNNWECRYSPKTKRSPLTRAHLTEVESRLERLEQLFLLIFPREDLDMILKMDSLQDIKALLTGLFVQDNVNKDAVTDRLASVETDMPLTLRQHRISATSSSEESSNKGQRQLTVSSVLQRDDPVLETSHQNFRRFRYQEAASPREALIRLRELCHQWLRPERRTKEQILELLVLEQFLTVLPGELQSWVRGQRPESGEEAV
notes: also called ZNF202beta; ZNF202 m1
